Reference: PMC11533547 (Poultry Science, 2024)

B1: chicken PD-1 protein (receptor)
chain: MALGTSRTMWDSTEAALVVLCVLLLCCNPPLAGCHQVTLFPATLTRPAGSSATFICNISMENSSLEFNLNWYQKTNNSNPQKIAGIIRNIPQKKMEKYRLFNNTPVFKMEILNLHQNDSGFYYCGLITFSRSDKVVESSHSQLVVTEAPEKTNTIDEPSEEESSPPDHIKAVLLGTLLLAGVIVLLLFGYIIINNRRADVQKPSSGNTLAEVKPPVVPVPTVDYGVLEFQRDPHSQVPLETCPAEQTEYATIVFPEEKPITPERGKRHKDERTWQLPSQPC
modifications: labeled using the BLUE-NHS protein labeling kit (NanoTemper)
B2: peptide gDK2-3 (peptide)
peptide: DAGLYHCLIEYGGADYKTINLK

Legend:
chicken PD-L1 protein = chicken PD-L1 protein (chicken); experiment: MST
chicken PD-1 protein = target: B1; experiment: MST

Binder	Kd (chicken PD-L1 protein)	Kd (chicken PD-1 protein)
B1	2.65 nM	–
B2	–	9.73 nM
